How the values were obtained:
[1] = test system: Normal human dermal fibroblasts (NHDFs) seeded on collagen type 1 gels; experiment: Fibroblast-seeded collagen gel contraction; type: cell-based; conditions: monitored for a further 3 days
[2] = test system: Normal human dermal fibroblasts (NHDFs) seeded on collagen type 1 gels; experiment: Fibroblast-seeded collagen gel contraction; type: cell-based; conditions: 0.1 mg/ml lactoferrin, 0.1 mg/ml ICI 118 551, 1.0 mg/ml Isoproterenol, 3.5×10^4 cells per well
Protocol: Normal human dermal fibroblasts (NHDFs) were obtained by tissue donation following circumcision following patient informed consent. The tissue was rinsed in Phosphate Buffered Saline (PBS) and Pen/Strep and Amphotericin B (Pen/strep) at 10 ug/ml. The tissue was then minced to 1 mm2 sections and suspended in Trypsin-EDTA 1:250 at room temperature (RT) for 1 hr. The tissue was then washed twice by centrifugation at 2500 g for 3min in serum supplemented DMEM/F12. A single cell suspension was created using mechanical disaggregation. The cells were counted using a haemocytometer and cultured at 1×10^6 cells per T75 tissue culture flask in DMEM/F12 containing 10% Fetal Bovine Serum (FBS) and 10 ug/ml Pen/strep. Incubators were kept at 37° C. and 5% CO2. Medium was changed every 3-4 days and cells were used from the 4th passage in vitro.
Collagen gels were formed. A solution of collagen, consisting of 2 mg/ml type 1 bovine collagen from bovine Achilles tendon in 0.5M acetic acid, was made. This made up 80% of the gel. Another 10% was made up of 10×PBS and the remaining volume was made up of FBS. The pH of the entire solution was adjusted to 7.4 using NaOH. 400 μl of the solution was placed into each well of a 24 well plate. The gels were set at 37° C. for 1 hr. After ensuring that the gels were set properly, they were detached from the sides of the wells and exposed to 1 ml fully supplemented DMEM/F12 overnight to acclimatize. The complete gels were seeded with 3.5×10^4 cells per well and the test compounds were added at this point. The test compound were added as follows: 0.1 mg/ml lactoferrin, 0.1 mg/ml ICI 118 551, 1.0 mg/ml Isoproterenol. A cell only and no cell control were also incuded.
Photographs were taken from the same distance at 0, 3, 6, 12 and 24 hrs of exposure using a Canon Powershot A640 10MP camera. The photos were transferred to CorelDRAW X3 and the inside diameter of the well as well as the outer edge of the gel were measured using the circle tool. […] These two diameters were then converted to a percentage of the well diameter by the formula geloutside/wellinside×100=gelrelative. This value was then worked out the same way for each gel at every time period. The time period Ohrs taken to be 100% of gel size and each time period after that was compared to it as a relative percentage. The standard deviation was calculated based on the original relative percentage to the well.

B1: Lactoferrin (protein, UniProt P02788 20-710, looked up)
Lactotransferrin: GRRRSVQWCAVSQPEATKCFQWQRNMRKVRGPPVSCIKRDSPIQCIQAIAENRADAVTLDGGFIYEAGLAPYKLRPVAAEVYGTERQPRTHYYAVAVVKKGGSFQLNELQGLKSCHTGLRRTAGWNVPIGTLRPFLNWTGPPEPIEAAVARFFSASCVPGADKGQFPNLCRLCAGTGENKCAFSSQEPYFSYSGAFKCLRDGAGDVAFIRESTVFEDLSDEAERDEYELLCPDNTRKPVDKFKDCHLARVPSHAVVARSVNGKEDAIWNLLRQAQEKFGKDKSPKFQLFGSPSGQKDLLFKDSAIGFSRVPPRIDSGLYLGSGYFTAIQNLRKSEEEVAARRARVVWCAVGEQELRKCNQWSGLSEGSVTCSSASTTEDCIALVLKGEADAMSLDGGYVYTAGKCGLVPVLAENYKSQQSSDPDPNCVDRPVEGYLAVAVVRRSDTSLTWNSVKGKKSCHTAVDRTAGWNIPMGLLFNQTGSCKFDEYFSQSCAPGSDPRSNLCALCIGDEQGENKCVPNSNERYYGYTGAFRCLAENAGDVAFVKDVTVLQNTDGNNNEAWAKDLKLADFALLCLDGKRKPVTEARSCHLAMAPNHAVVSRMDKVERLKQVLLHQQAKFGRNGSDCPDKFCLFQSETKNLLFNDNTECLARLHGKTTYEKYLGPQYVAGITNLKKCSTSPLLEACEFLRK
notes: transferrin; known collagen contractor
return of gels to original dimensions [1]: did not return to their original dimensions | % of original size (mean) ([2]; 0 hrs (taken to be 100% of gel size)): 100% | % of original size (mean) ([2]; 3 hrs): 92.62% | % of original size (mean) ([2]; 6 hrs): 64.48% | % of original size (mean) ([2]; 12 hrs): 54.71% | % of original size (mean) ([2]; 24 hrs): 49.73%

From patent publication US20120244208A1, “COSMETIC SKIN CARE METHODS AND COMPOSITIONS” (priority 2009, published 2012)
